# B1: BaMV helicase-like domain (of BaMV replicase) (Bamboo mosaic virus) (protein)
# chain: YSPDIERAAAFARDVMSNKTGAILPKQSHEWKTTLKRKCKLAPRQTLISVIHGAGGSGKSRALQEYMRNNKEDPIVTILPTNELRADWKAKLPAHDPDMFMTFENALLIPKGNVVIMDDYTKLPRGYIEAYVQNSPMLDLLILTGDPRQSEHFESAEGNTINDLSPSPVVFSAYARYYINATHRNNQDLANALGVYSEKQGKTRISVSNHIEDGRHTLVPSQIKQRNYVSMGRKTSTYAGCQGITASRVQVIIDNDTAKCSHQVLYTAFSRAADEIHFCNTMTDEKQFWAKVKCTPYLQAILNLTKEHSLPDP
# Substrate: Nc1ncnc2c1ncn2[C@@H]1O[C@H](COP(=O)(O)OP(=O)(O)OP(=O)(O)O)[C@@H](O)[C@H]1O
# Experiment: purified protein
protein,measurement,value
B1,Km,148 ± 5 µM
same,kcat,82 s⁻¹

# From article PMC7134557
